In article PMC3675580, “Stabilization, Characterization, and Selective Removal of Cystatin C Amyloid Oligomers*” (The Journal of Biological Chemistry, 2013):
Changes are numbered by the printed parent chain. In names and notes the source's numbering stands. Several values for one entry are separate records, joined by “and”; a condition that tells them apart may be missing. Equal values may be shown once.

Columns and labels:
[1] = target: stab1 cystatin C (L47C/G69C), disulfide-stabilized monomer (human) (UniProt P01034); assay: MALDI-TOF MS; isolated oligomers 1 mg/ml in 150 mM ammonium bicarbonate pH 7.8 (nonreducing), matrix 2,6-dihydroxyacetophenone
[2] = target: stab1 cystatin C (L47C/G69C), disulfide-stabilized monomer (human) (UniProt P01034); assay: native gel or EMSA; agarose gel electrophoresis under native conditions; stab1 cystatin C 0.2 mg/ml (15 uM) in PBS pH 7.4, 0.5 or 1.0 M GdnHCl, 1:1 molar equivalents of DTT, 24 h at 40 C
[3] = target: Mammalian legumain (EC 3.4.22.34) (pig)
[4] = target: the molecule itself; assay: SDS-PAGE in 0.1% SDS of unboiled, nonreduced samples; 1 mg/ml in 50 mM sodium acetate pH 4.0, 100 mM NaCl, 48 C, 900 rpm, 4 h; gel run at 4 C, silver-stained
[5] = target: the molecule itself; assay: SEC; SEC at the end of the purification of refolded L68Q cystatin C

Molecule: stab1 cystatin C (L47C/G69C), disulfide-stabilized monomer (from UniProt P01034 27-146) (natural protein)
- stoichiometry N (monomeric subunits) [1]: 4 and 3
- stoichiometry N [2]: 2

Molecule: stab1 cystatin C (L47C/G69C), disulfide-stabilized monomer (from UniProt P01034 27-146)
- stoichiometry N (monomeric subunits) [1]: 2

Molecule: stabilized cystatin C decamer (stab1, L47C/G69C) (from UniProt P01034 27-146) (complex)
- inhibitory capacity toward legumain (fluorogenic substrate Z-Ala-Ala-Asn-AMC), equal mass concentrations [3]: 93%

Molecule: stabilized cystatin C dimer (stab1, L47C/G69C) (from UniProt P01034 27-146) (complex)
- inhibitory capacity toward legumain (fluorogenic substrate Z-Ala-Ala-Asn-AMC), equal mass concentrations [3]: 102%

Molecule: stabilized cystatin C trimer (stab1, L47C/G69C) (from UniProt P01034 27-146) (complex)
- inhibitory capacity toward legumain (fluorogenic substrate Z-Ala-Ala-Asn-AMC), equal mass concentrations [3]: 99%

B1: stabilized cystatin C high molecular weight oligomers (stab1, L47C/G69C) (complex)
chain: SSPGKPPRLVGGPMDASVEEEGVRRALDFAVGEYNKASNDMYHSRACQVVRARKQIVAGVNYFLDVELCRTTCTKTQPNLDNCPFHDQPHLKRKAFCSFQIYAVPWQGTMTLSKSTCQDA
modifications: intermolecular disulfide bridges (the paper: most likely Cys47-Cys69)
- inhibitory capacity toward legumain (fluorogenic substrate Z-Ala-Ala-Asn-AMC), equal mass concentrations [3]: 55%

B2: human wild type cystatin C (natural protein, UniProt P01034 27-146, looked up)
chain: B1 chain with C47L, C69G
notes: cystatin C, human, wild type; Mr 13,343; also called wt cystatin C; wt monomer; source: E. coli periplasmic extract, purified (ion-exchange, SEC), lyophilized
- binding result [4]: binds

B3: L68Q cystatin C (natural protein, human, UniProt P01034 27-146, looked up)
chain: B1 chain with C47L, L68Q, C69G
notes: cystatin C, human, hereditary cystatin C amyloid angiopathy variant L68Q; also called L68Q cystatin C variant; disease-associated L68Q variant
- stoichiometry N [5]: 2
